Test results from publication PMC7954794, “Protein context shapes the specificity of SH3 domain-mediated interactions in vivo” (Nature Communications, 2021).

Tested on: growth of yeast strains under 51 stress conditions
Test: Growth assays in 51 stress conditions (Fig. 1E-F, S2D, S5B)
Assay type: cell-based, Saccharomyces cerevisiae
Design: key to Growth (Fig. S2D) / growth of ABP1 SH3-swapped strains in stress condition: log2 colony size, average of median per strain (growth score)
Settings: FigS2D
Outline: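 Colony sizes at 74 h on 51 stress media (37 °C) were log2 transformed, corrected for plate effects, and averaged across two plates as per-plate medians (growth score). Strains arrayed in 12 replicates with WT border, grown first on YPD for two days at 30 °C.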

B1: PIN3 (protein, UniProt Q06449 2-215, looked up)
[PSI+] inducibility protein 3: SASLINRSLTNIRTELDFLKGSNVISNDVYDQINKSLPAKWDPANAPRNASPASLEYVEALYQFDPQQDGDLGLKPGDKVQLLEKLSPEWYKGSCNGRTGIFPANYVKPAFSGSNGPSNLPPPPQYKAQELQQIPTQNSAASSYQQQPFPPPSTNYYQQPQQQPQQAPPPQQQQQQQQHQSSHSHLKSFGSKLGNAAIFGAGASIGSDIVNNIF
Bathophenanthroline.0.1uM
  growth of ABP1 SH3-swapped strains in stress condition: 10.8166
Bathophenanthroline.10uM
  growth of ABP1 SH3-swapped strains in stress condition: 10.6603
Bathophenanthroline.1uM
  growth of ABP1 SH3-swapped strains in stress condition: 10.7601
CaCl2.100mM
  growth of ABP1 SH3-swapped strains in stress condition: 10.8086
CaCl2.250mM
  growth of ABP1 SH3-swapped strains in stress condition: 10.7002
CaCl2.500mM
  growth of ABP1 SH3-swapped strains in stress condition: 10.193
Caffein.10mM
  growth of ABP1 SH3-swapped strains in stress condition: 10.1104
Caffein.2mM
  growth of ABP1 SH3-swapped strains in stress condition: 10.9501
CdCl2.100uM
  growth of ABP1 SH3-swapped strains in stress condition: 9.413
CdCl2.10uM
  growth of ABP1 SH3-swapped strains in stress condition: 10.8515
CdCl2.50uM
  growth of ABP1 SH3-swapped strains in stress condition: 9.821
CuSO4.1mM
  growth of ABP1 SH3-swapped strains in stress condition: 10.439
CuSO4.5mM
  growth of ABP1 SH3-swapped strains in stress condition: 7.85
Cycloheximide.0.05.uM
  growth of ABP1 SH3-swapped strains in stress condition: 11.0946
Cycloheximide.0.2.uM
  growth of ABP1 SH3-swapped strains in stress condition: 10.6691
Cycloheximide.0.5.uM
  growth of ABP1 SH3-swapped strains in stress condition: 10.0558
DMSO.2.
  growth of ABP1 SH3-swapped strains in stress condition: 10.999
DMSO.6.
  growth of ABP1 SH3-swapped strains in stress condition: 9.863
DMSO.8.
  growth of ABP1 SH3-swapped strains in stress condition: 9.083
Ethanol.2.
  growth of ABP1 SH3-swapped strains in stress condition: 10.7656
Ethanol.6.
  growth of ABP1 SH3-swapped strains in stress condition: 10.3279
Ethanol.8.
  growth of ABP1 SH3-swapped strains in stress condition: 10.22
Galactose.2.
  growth of ABP1 SH3-swapped strains in stress condition: 10.8019
Glycerol.2.
  growth of ABP1 SH3-swapped strains in stress condition: 9.823
Hydroxyurea.25mM
  growth of ABP1 SH3-swapped strains in stress condition: 10.7882
Hygromycin.190uM
  growth of ABP1 SH3-swapped strains in stress condition: 10.9875
Hygromycin.19uM
  growth of ABP1 SH3-swapped strains in stress condition: 10.9831
Hygromycin.95uM
  growth of ABP1 SH3-swapped strains in stress condition: 10.9742
MMS.0.004.
  growth of ABP1 SH3-swapped strains in stress condition: 10.989
MMS.0.02.
  growth of ABP1 SH3-swapped strains in stress condition: 10.7926
MMS.0.04.
  growth of ABP1 SH3-swapped strains in stress condition: 10.0504
Menadione.100uM
  growth of ABP1 SH3-swapped strains in stress condition: 10.5651
Menadione.200uM
  growth of ABP1 SH3-swapped strains in stress condition: 10.4599
Menadione.50uM
  growth of ABP1 SH3-swapped strains in stress condition: 10.8547
NaCl.0.25M
  growth of ABP1 SH3-swapped strains in stress condition: 10.7663
NaCl.1M
  growth of ABP1 SH3-swapped strains in stress condition: 9.587
Nitroquinoline.10uM
  growth of ABP1 SH3-swapped strains in stress condition: 10.765
Nitroquinoline.50uM
  growth of ABP1 SH3-swapped strains in stress condition: 10.634
Nystatin.0.01uM
  growth of ABP1 SH3-swapped strains in stress condition: 10.9089
Nystatin.0.1uM
  growth of ABP1 SH3-swapped strains in stress condition: 10.9679
Raffinose.2.
  growth of ABP1 SH3-swapped strains in stress condition: 10.9939
Rapamycin.10nM
  growth of ABP1 SH3-swapped strains in stress condition: 9.886
Rapamycin.50nM
  growth of ABP1 SH3-swapped strains in stress condition: 9.402
SC.pH3
  growth of ABP1 SH3-swapped strains in stress condition: 10.4061
SC.pH6
  growth of ABP1 SH3-swapped strains in stress condition: 11.0349
SDS.0.01.
  growth of ABP1 SH3-swapped strains in stress condition: 10.9539
SDS.0.02.
  growth of ABP1 SH3-swapped strains in stress condition: 10.9685
SDS.0.05.
  growth of ABP1 SH3-swapped strains in stress condition: 10.8165
Sorbitol.10mM
  growth of ABP1 SH3-swapped strains in stress condition: 10.9792
Sorbitol.1mM
  growth of ABP1 SH3-swapped strains in stress condition: 10.9728
Sorbitol.5mM
  growth of ABP1 SH3-swapped strains in stress condition: 10.9245
